Experimental data: article PMC4841217, “Structure and stability of recombinant bovine odorant-binding protein: III. Peculiarities of the wild type bOBP unfolding in crowded milieu” (PeerJ, 2016)

Target: the molecule itself
Experiment: intrinsic tryptophan fluorescence (parameter A, fluorescence anisotropy r) with GdnHCl unfolding-refolding curves; recombinant bOBP 0.1-0.2 mg/mL in 20 mM Na-phosphate pH 7.8 with PEG-600, PEG-4000 or PEG-12000 at 80, 150 or 300 mg/mL; incubated at 4 °C, measured at 23 °C; monomer to dimer, inferred from raised anisotropy and sigmoidal unfolding curves

B1: recombinant bovine odorant-binding protein (natural protein)
chain: AQEEEAEQNLSELSGPWRTVYIGSTNPEKIQENGPFRTYFRELVFDDEKGTVDFYFSVKRDGKWKNVHVKATKQDDGTYVADYEGQNVFKIVSLSRTHLVAHNINVDKHGQTTELTELFVKLNVEDEDLEKFWKLTEDKGIDKKNVVNFLENEDHPHPE
notes: Written as the single chain that associates with itself into the domain-swapped dimer; also called bOBP; recombinant bOBP; source: E. coli BL21(DE3), purified (Ni+-agarose, HisGraviTrap columns)
  binding result: binds
